The source of these data is doi:10.1101/343368.

What all share (test): GO/AuNP colorimetric aptasensor
The target of one series is T1, arachin (Ara h 1) (peanut, UniProt P43238 85-626).
T1 sequence: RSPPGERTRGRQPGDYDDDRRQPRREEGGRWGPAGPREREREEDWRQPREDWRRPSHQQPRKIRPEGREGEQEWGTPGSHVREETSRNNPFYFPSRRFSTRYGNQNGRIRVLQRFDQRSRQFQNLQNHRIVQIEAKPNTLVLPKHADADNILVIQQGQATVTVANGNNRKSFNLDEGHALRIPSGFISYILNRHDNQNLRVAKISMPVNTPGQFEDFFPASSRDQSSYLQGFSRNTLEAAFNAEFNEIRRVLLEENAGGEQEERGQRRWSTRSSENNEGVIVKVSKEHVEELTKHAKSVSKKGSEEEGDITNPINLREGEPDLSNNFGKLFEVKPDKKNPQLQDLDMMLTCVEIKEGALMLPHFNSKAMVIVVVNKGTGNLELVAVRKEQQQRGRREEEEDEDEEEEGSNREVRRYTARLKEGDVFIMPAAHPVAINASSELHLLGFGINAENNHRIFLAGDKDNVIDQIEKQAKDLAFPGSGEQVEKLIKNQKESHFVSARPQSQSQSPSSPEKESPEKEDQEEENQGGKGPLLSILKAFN

The next series has as its target tropomyosin (Pen a 1) (shrimp (species ), UniProt Q3Y8M6 1-284).
The next series concerns the target T2, beta-lactoglobulin (milk (species ), UniProt P02754 17-178).
T2 sequence: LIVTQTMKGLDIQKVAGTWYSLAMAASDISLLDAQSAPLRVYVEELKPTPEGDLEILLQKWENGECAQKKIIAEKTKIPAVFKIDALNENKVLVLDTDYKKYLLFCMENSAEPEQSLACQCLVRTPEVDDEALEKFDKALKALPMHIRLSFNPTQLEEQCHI

tropomyosin (Pen a 1), sequence (Q3Y8M6 whole entry): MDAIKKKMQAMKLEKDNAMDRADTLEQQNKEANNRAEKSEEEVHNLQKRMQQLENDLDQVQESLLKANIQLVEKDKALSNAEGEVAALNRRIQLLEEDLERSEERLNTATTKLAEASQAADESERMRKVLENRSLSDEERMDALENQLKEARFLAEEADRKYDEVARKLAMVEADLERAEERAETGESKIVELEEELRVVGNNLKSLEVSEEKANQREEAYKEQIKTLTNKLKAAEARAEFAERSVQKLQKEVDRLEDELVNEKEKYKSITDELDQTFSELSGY

B1: arachin (peanut) aptamer (ssDNA)
DNA: TCGCACATTCCGCTTCTACCGGGGGGGTCGAGCGAGTGAGCGAATCTGTGGGTGGGCCGTAAGTCCGTGTGTGCGAA
modifications: biotin (position not given)
Regarding B1, in the series with arachin (Ara h 1), the binding result is “binds”.

B2: tropomyosin (shrimp) aptamer (ssDNA)
DNA: TACTAACGGTACAAGCTACCAGGCCGCCAACGTTGACCTAGAAGCACTGCCAGACCCGAACGTTGACCTAGAAGC
modifications: biotin (position not given)
With B2, the binding result in the series with tropomyosin (Pen a 1) is “binds”.

B3: beta-lactoglobulin (milk) aptamer (ssDNA)
DNA: ATACCAGCTTATTCAATTCGACGATCGGACCGCAGTACCCACCCACCAGCCCCAACATCATGCCCATCCGTGTGTGAGATAGTAAGTGCAATCT
modifications: biotin (position not given)
With B3, the binding result in the series with beta-lactoglobulin is on record as “binds”.
